Columns and labels:
Assay in all cases: IP/MS, LZTR1 R810W-FLAG, U87
[1] = target: T1, USP4 (human, UniProt Q13107 1-963, limits assumed)
T1 sequence (looked up): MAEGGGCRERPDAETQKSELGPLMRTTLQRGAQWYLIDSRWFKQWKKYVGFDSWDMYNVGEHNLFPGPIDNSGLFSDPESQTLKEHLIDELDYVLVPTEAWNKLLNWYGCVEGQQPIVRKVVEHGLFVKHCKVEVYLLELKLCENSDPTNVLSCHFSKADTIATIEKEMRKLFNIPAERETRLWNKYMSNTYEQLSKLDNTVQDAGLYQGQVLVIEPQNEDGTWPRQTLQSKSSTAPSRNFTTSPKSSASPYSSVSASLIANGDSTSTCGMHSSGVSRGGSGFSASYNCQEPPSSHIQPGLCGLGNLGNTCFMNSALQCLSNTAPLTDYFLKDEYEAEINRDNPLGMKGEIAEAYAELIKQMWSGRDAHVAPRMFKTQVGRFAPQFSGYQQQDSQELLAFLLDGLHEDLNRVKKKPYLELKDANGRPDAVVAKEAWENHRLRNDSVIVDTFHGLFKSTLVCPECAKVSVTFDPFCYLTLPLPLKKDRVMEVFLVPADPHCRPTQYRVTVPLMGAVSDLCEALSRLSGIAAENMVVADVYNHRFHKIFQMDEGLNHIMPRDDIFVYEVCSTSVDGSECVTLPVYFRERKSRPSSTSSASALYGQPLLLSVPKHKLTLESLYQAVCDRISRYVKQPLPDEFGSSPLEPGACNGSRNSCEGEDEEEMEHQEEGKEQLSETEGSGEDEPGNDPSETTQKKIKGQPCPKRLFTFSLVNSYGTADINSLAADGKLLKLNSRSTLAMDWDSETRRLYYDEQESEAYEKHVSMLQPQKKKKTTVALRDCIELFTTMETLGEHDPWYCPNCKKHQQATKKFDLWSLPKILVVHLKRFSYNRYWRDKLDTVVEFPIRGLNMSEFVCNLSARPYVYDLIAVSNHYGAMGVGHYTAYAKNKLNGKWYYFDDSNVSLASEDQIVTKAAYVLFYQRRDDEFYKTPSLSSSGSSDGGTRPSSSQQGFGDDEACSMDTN
Outline: (§1)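 Read-out: spectral counts from LC-MS/MS (Orbitrap Fusion) after MaxQuant identification. Variable modifications were Met oxidation, protein N-terminal acetylation and N/Q deamidation.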

[2] = target: HERC2 (human, UniProt O95714 1-4834)
Outline: as §1

[3] = target: TRIO (human, UniProt O75962 1-3097, limits assumed)
Outline: as §1

Measured: binding result

Chain of HERC2 (O95714 whole entry): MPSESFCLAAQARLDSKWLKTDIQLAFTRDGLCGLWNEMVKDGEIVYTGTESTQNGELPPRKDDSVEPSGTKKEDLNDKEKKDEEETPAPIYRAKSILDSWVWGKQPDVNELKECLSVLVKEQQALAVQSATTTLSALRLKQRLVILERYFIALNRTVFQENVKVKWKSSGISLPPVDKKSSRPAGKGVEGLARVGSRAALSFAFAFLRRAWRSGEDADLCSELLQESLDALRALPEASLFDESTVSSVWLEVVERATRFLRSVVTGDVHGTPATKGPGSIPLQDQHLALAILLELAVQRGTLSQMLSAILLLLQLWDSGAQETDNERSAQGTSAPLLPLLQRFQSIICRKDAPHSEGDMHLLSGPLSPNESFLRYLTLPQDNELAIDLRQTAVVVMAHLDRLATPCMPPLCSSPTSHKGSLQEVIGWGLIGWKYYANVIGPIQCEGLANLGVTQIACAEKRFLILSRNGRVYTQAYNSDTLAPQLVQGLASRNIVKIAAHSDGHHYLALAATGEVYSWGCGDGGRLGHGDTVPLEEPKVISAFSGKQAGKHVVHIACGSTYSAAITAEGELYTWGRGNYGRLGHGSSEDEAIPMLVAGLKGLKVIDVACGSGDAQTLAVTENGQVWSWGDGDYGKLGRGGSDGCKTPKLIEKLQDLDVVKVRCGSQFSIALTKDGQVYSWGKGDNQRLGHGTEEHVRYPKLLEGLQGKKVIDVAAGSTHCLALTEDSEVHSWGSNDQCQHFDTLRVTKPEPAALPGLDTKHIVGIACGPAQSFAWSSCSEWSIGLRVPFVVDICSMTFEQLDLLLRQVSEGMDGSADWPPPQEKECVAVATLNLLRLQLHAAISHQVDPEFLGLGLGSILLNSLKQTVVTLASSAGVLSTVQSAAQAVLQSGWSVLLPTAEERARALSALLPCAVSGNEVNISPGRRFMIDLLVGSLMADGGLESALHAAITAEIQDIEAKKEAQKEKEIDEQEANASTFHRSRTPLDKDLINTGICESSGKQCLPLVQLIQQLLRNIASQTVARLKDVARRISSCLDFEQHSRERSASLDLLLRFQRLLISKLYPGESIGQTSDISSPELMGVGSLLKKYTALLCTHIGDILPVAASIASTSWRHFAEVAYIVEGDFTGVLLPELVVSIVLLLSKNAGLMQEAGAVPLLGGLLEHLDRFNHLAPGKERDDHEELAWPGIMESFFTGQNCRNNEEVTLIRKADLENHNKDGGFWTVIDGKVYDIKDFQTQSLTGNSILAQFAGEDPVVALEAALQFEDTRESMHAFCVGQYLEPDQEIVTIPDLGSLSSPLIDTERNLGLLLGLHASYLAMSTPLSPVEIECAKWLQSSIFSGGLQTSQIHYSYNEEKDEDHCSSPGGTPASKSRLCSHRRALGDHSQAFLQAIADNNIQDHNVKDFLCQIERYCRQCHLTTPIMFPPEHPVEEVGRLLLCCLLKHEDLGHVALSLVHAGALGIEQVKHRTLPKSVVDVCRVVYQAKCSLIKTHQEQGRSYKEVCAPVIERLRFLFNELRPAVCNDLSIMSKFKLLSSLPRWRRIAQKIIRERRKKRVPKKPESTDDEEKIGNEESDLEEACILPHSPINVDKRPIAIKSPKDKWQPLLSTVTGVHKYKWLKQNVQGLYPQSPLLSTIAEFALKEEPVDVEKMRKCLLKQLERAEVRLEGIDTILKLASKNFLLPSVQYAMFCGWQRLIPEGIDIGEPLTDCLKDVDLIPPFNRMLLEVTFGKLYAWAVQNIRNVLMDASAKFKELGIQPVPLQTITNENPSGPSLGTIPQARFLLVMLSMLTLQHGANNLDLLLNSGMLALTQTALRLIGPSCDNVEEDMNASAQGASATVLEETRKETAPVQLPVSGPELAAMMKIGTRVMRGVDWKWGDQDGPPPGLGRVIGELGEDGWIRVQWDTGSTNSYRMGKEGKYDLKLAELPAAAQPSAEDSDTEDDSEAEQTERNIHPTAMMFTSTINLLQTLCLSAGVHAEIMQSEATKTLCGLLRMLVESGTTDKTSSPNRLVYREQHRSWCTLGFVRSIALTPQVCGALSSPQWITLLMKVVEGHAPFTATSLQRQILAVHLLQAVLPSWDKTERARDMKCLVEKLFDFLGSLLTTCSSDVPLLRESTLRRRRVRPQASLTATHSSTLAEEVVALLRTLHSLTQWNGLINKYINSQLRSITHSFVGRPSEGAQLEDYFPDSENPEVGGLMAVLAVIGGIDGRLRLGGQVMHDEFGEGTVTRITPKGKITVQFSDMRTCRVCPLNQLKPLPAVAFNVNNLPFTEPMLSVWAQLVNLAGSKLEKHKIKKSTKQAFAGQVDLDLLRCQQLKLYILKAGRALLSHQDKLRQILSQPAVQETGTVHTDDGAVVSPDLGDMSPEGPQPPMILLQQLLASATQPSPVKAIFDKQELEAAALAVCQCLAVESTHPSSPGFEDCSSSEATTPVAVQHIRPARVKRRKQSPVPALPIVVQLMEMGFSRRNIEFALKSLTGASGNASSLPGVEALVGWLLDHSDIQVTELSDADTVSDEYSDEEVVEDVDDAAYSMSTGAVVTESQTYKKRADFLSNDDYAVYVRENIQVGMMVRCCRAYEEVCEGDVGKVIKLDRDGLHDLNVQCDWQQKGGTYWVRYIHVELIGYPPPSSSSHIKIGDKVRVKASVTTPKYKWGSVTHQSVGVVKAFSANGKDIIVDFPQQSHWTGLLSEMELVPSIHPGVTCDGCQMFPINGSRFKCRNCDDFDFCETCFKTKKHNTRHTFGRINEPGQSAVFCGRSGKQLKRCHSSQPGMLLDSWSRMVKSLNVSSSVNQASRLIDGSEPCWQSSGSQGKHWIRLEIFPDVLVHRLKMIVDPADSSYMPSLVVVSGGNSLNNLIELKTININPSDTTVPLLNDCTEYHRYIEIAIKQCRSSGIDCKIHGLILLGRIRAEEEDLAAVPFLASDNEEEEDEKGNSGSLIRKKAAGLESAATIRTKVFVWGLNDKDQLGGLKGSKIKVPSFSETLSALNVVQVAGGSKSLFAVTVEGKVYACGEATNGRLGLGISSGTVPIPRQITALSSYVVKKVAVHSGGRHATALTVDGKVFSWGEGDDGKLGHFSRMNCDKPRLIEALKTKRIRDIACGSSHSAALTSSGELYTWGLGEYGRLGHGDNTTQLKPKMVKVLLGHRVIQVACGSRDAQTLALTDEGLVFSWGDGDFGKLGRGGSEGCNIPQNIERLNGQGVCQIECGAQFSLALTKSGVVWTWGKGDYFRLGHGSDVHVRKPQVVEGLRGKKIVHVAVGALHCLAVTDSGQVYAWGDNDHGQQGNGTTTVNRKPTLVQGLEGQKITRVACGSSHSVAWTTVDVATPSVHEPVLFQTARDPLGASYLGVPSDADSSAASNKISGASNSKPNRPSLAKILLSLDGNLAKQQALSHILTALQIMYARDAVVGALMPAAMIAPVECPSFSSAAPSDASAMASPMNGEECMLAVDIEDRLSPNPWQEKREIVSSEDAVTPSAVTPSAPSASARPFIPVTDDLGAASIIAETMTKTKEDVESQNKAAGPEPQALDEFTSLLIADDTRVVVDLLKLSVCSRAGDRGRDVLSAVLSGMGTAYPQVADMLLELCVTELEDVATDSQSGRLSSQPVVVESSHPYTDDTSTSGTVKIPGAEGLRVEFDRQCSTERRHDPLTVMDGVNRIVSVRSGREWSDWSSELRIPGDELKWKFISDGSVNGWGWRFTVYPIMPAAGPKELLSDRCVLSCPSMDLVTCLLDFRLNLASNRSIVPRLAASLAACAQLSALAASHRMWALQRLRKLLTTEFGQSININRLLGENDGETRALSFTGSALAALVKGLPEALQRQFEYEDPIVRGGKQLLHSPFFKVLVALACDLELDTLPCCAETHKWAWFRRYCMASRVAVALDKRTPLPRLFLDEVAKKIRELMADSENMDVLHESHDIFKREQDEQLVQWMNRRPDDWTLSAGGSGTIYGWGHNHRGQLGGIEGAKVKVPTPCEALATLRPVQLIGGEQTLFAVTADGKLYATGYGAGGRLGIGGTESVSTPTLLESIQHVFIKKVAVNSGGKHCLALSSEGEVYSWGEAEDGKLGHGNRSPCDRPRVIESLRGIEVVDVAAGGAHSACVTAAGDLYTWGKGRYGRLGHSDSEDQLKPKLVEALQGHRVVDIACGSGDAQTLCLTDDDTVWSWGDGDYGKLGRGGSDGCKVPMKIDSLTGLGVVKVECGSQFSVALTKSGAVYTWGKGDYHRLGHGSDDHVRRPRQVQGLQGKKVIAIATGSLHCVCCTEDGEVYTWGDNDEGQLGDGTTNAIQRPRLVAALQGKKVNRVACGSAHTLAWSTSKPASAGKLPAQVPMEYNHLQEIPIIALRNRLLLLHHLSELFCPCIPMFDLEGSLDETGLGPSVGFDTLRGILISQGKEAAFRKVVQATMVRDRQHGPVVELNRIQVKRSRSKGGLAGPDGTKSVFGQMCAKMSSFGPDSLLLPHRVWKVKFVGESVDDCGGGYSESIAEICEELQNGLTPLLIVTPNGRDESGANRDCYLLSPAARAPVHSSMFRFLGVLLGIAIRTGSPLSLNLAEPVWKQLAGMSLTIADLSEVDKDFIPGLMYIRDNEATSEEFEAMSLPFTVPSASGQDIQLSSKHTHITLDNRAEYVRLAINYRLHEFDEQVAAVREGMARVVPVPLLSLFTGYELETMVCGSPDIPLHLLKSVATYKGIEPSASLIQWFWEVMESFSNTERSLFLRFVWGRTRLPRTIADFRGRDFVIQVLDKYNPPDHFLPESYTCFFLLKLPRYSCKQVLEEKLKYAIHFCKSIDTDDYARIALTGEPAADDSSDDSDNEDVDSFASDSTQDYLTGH

B1: LZTR1 R810W-FLAG (other, human, UniProt Q8N653 1-840, looked up)
chain: MAGPGSTGGQIGAAALAGGARSKVAPSVDFDHSCSDSVEYLTLNFGPFETVHRWRRLPPCDEFVGARRSKHTVVAYKDAIYVFGGDNGKTMLNDLLRFDVKDCSWCRAFTTGTPPAPRYHHSAVVYGSSMFVFGGYTGDIYSNSNLKNKNDLFEYKFATGQWTEWKIEGRLPVARSAHGATVYSDKLWIFAGYDGNARLNDMWTIGLQDRELTCWEEVAQSGEIPPSCCNFPVAVCRDKMFVFSGQSGAKITNNLFQFEFKDKTWTRIPTEHLLRGSPPPPQRRYGHTMVAFDRHLYVFGGAADNTLPNELHCYDVDFQTWEVVQPSSDSEVGGAEVPERACASEEVPTLTYEERVGFKKSRDVFGLDFGTTSAKQPTQPASELPSGRLFHAAAVISDAMYIFGGTVDNNIRSGEMYRFQFSCYPKCTLHEDYGRLWESRQFCDVEFVLGEKEECVQGHVAIVTARSRWLRRKITQARERLAQKLEQEAAPVPREAPGVAAGGARPPLLHVAIREAEARPFEVLMQFLYTDKIKYPRKGHVEDVLLIMDVYKLALSFQLCRLEQLCRQYIEASVDLQNVLVVCESAARLQLSQLKEHCLNFVVKESHFNQVIMMKEFERLSSPLIVEIVRRKQQPPPRTPLDQPVDIGTSLIQDMKAYLEGAGAEFCDITLLLDGHPRPAHKAILAARSSYFEAMFRSFMPEDGQVNISIGEMVPSRQAFESMLRYIYYGEVNMPPEDSLYLFAAPYYYGFYNNRLQAYCKQNLEMNVTVQNVLQILEAADKTQALDMKRHCLHIIVHQFTKVSKLPTLWSLSQQLLLDIIDSLASHISDKQCAELGADI
notes: Stably expressed in U87 cells by lentivirus; also called LZTR1-FLAG-R810W; LZTR1 RW; not shown: FLAG tag
binds: all assays above
